The nature of this data set: soluble on expression in E. coli; label from the status in PepcDB or PDB records.
Consider “MRGSHHHHHHGSMAEKNYVMAIDQGTTSSRAIIFDRNGKKIGSSQKEFPQYFPKSGWVEHNANEIWNSVQSVIAGAFIESGIRPEAIAGIGITNQRETTVVWDKTTGQPIANAIVWQSRQSSPIADQLKVDGHTEMIHEKTGLVIDAYFSATKVRWLLDNIEGAQEKADNGELLFGTIDSWLVWKLTDGQVHVTDYSNASRTMLYNIHKLEWDQEILDLLNIPSSMLPEVKSNSEVYGHTRSYRFYGSEVPIAGMAGDQQAALFGQMAFEKGMIKNTYGTGAFIVMNTGEEPQLSDNDLLTTIGYGINGKVYYALEGSIFVAGSAIQWLRDGLRMIETSPQSEELAAKAKGDNEVYVVPAFTGLGAPYWDSEARGAVFGLTRGTTKEDFVRATLQAVAYQSKDVIDTMKKDSGIDIPLLKVDGGAAKNDLLMQFQADILDIDVQRAANLETTALGAAYLAGLAVGFWKDLDELKSMAEEGQMFTPEMPAEERDNLYEGWKQAVAATQTFKFKAKKEGE”, for which the “soluble on expression in E. coli” value is recorded as “soluble”.

For the sequence “MNNGFFNSDFDSIFRRMMKDMQGSNQVGNKKYYINGKEVSPEELAQLTQQGGNHSAEQSAQAFQQAAQRQQGQQGGNGNYLEQIGRNLTQEARDGLLDPVIGRDKEIQETAEVLSRRTKNNPILVGEAGVGKTAIVEGLAQAIVEGNVPAAIKDKEIISVDISSLEAGTQYRGAFEENIQKLIEGVKSSQNAVLFFDEIHQIIGSGATGSDSGSKGLSDILKPALSRGEISIIGATTQDEYRNNILKDAALTRRFNEVLVNEPSAKDTVEILKGIREKFEEHHQVKLPDDVLKACVDLSIQYIPQRLLPDKAIDVLDITAAHLSAQSPAVDKVETEKRISELENDKRKAVSAEEYKKADDIQNEIKSLQDKLENSNGEHTAVATVHDISDTIQRLTGIPVSQMDDNDIERLKNISNRLRSKIIGQDQAVEMVSRAIRRNRAGFDDGNRPIGSFLFVGPTGVGKTELAKQLAIDLFGNKDALIRLDMSEYSDTTAVSKMIGTTAGYVGYDDNSNTLTEKVRRNPYSVILFDEIEKANPQILTLLLQVMDDGNLTDGQGNVINFKNTIIICTSNAGFGNGNDAEEKDIMHEMKKFFRPEFLNRFNGIVEFLHLDKDALQDIVNLLLDDVQVTLDKKGITMDVSQDAKDWLIEEGYDEELGARPLRRIVEQQVRDKITDYYLDHTDVKHVDIDVEDNELVVKGK”, the “soluble on expression in E. coli” value was “not soluble”.

Turning to “MGSDKIHHHHHHMSDDELLFAEEDPSDNVGEGIGRAPWVILVVDDDTEVHALSRLLLSEIEFKGRRVAMYSAYSAAEARAMLGRIDDVAVILLDVVMETDDAGLKLVRTIRETMNNRDVRIILRTGQPGQAPEREVIETYDINDYKSKTELTAQKLHTALVAALRAYDDIMALVLSRQGLRKILDAAASLYRQRSMELFAAGVLTQINALLGGDRDGILCVQSRKEQADEDDPAGAMVVLAASGAYERLVGKRVDELPESPVISLIREAAASRTSRHGSHASALYMPTGDGRETVVFLHAAEPLKAQDRALMQLFCDNISAGFDTVCEIDDLRRENVRLRARLGEAKAP”, the “soluble on expression in E. coli” value was “not soluble”.

As to “MGHHHHHHSHMSSKHDYTNPPWNAKVPVQRAMQWMPISQKAGAAWGVDPQLITAIIAIESGGNPNAVSKSNAIGLMQLKASTSGRDVYRRMGWSGEPTTSELKNPERNISMGAAYLNILETGPLAGIEDPKVLQYALVVSYANGAGALLRTFSSDRKKAISKINDLDADEFLEHVARNHPAPQAPRYIYKLEQALDAM”, the “soluble on expression in E. coli” value is listed as “soluble”.

In the case of “MAAWFECKVTYEKVADNGMPKKVVESYLVDADSFTLAEAKMIEEITPFVSMGEFNISNIRKVNYAELFLNEDDKCDRYYRCKVLYVTIDEKNGVEKKTPAFMLVKSDSLPNAVAELEKQMGKGLADYEIASVAETALMDVFQYVPAQ”, the “soluble on expression in E. coli” value is recorded as “not soluble”.

For the sequence “MTKPAPTPLYNEFTFFLKKYFSYKVQKISLNAGFTCPNRDGTKGLGGCTYCNNQTFNPEYCKTEKSVTRQLEEGKQFFAHKYPDMKYLAYFQAYTNTYAELEGLKGKYEEALSVDGVVGLVIGTRPDCMPDPLLRYLEELNKHTFLLVEYGIETTRDVTLKRINRGHTYADTVETVNRTAACGILTGGHVILGLPGETHDEIIAQAAELSRLPLTTLKMHQLQLIRGTKMAREFECRPEDFHLFSVDEYIDLVIDYVEHLRPDLILERFVSQSPKELLIAPDWGLKNYEFTARVQKRMKERGAYQGKAYLV”, the “soluble on expression in E. coli” value is listed as “not soluble”.

As for “MAHHHHHHMSEERVKILVLGPSRSGKSTIANFLAGLRETPTKGYYETQPLRILEVEIGLDNLKVGGRHVVGPKKAIVQLWDLGGSSKHQAGWQAVAANADGIIYVFNPEVRGAEKELVLWHKNFALDQDKLDERNNFKVRVPDKHSLVFSHHSSMPELAVGDNAIPSLPKQLRGVRAIETSLDYQSGNFKEAFDAMVEQIVVSRIVAEEDEILQKEREAGDAPRMVR”, the “soluble on expression in E. coli” value is given as “not soluble”.

As for “VAEEATGDWGQIFTAFNELSQTLAEYEEERVKHRNELQQERDRFRRLFQSIPEPAVVVEYTGNKTLIHNVNEAFEETFGYEASNAVGGDINDFIVPDGSLEEAESIDQLSSSGKQVTHEVRREAADGKRDFLLRSTPAVDGE”, the “soluble on expression in E. coli” value was “not soluble”.

“MAHHHHHHMVVSLIGPLDSPYVQRTLLVAAYAGIQLKLVPIQIGRENETEEYRLNCHPMQRVPVMKTDEGYLFESNAMIRYLARTEVMLVSVSAGIDSAGANNEKIPHPQYPIPYAMYGHSLLESTQVDSWLDFAITRIDFYTRQFFAYEHKTGPKPAADMKTLLCKSLDGLERRVAYLKEACRALVQQSGSLTSRSVMTDEELVWNEEDYMASRATRDSRLSSVYNVAGSIRQRHMEKERQEREKQLMLIKKTTDDALGKEEGADDPHHPSRRPSVSRDSMAISATPRASVLMSARSTMGSAAPGVQRHDLLFLVGGSLTAADLVMAMSLHGVLCCQELKPVLTSKYPNLFKYYKSVLMLPVAAEVRKAIRLSIIKE”: the “soluble on expression in E. coli” value was “soluble”.

For “MAVGEVMRMEIPAGGDLTVTTPELHVLAVDDSIVDRKVIERLLRISSCKVTTVESGTRALQYLGLDGGKGASNLKDLKVNLIVTDYSMPGLSGYDLLKKIKESSAFREVPVVIMSSENILPRIQECLKEGAEEFLLKPVKLADVKRIKQLIMRNEAEECKILSHSNKRKLQEDSDTSSSSHDDTSIKDSSCSKRMKSESENLFSLL”, the “soluble on expression in E. coli” value was “not soluble”.

As for “MLLQELLGIDEDIYLIEESYTSQRNPELTLQYLNRFLNFPDIENIRIIRVRQAGHTTGLLFFNPADEDVPVDFWSVFTGAFAQPALKEKFETLADSLLNLTSPEKDIELLHETWFNAVNEYYSLMLVNRNLCTSCSVKPESYGNVFSENRIKRVAEILELLRKKGYYPEGRLLEVCCGNGMSTLALYRSGLDPLAIEINKCTICQGLEQGVLNPQRVMVMDAAAVSRYFEPGSFDAVMGFMLGLVYEFNKGLWVRIVREAVSVAADGAVLLFTVSSKPEIEILADALFRAGVDGEIVDNTDSEGAYDQWLFVGRRQKNTST”, the “soluble on expression in E. coli” value is listed as “not soluble”.

For “MRSRERNRRPTLDELDRILTYFEQMRDRRRQEIDMLRVIVFALFSTRRQEEITRIRWDLLNESEQSALVTDMKNPGQKYGNDVWCHMPDEAWRVLQSMPKVADEVFPYNSRSVSASFTRACNFLEIEDLHFHDLRHDGVSRLFEMGWDIPKVASVSGHRDWNSMRRYTHLRGNGDPYAGWQWIERVISGPVIEAQVRVKRRAAGRAPLEHHHHHH”, the “soluble on expression in E. coli” value is “not soluble”.

Consider “MAIAPQQIQERLKQEQYQKFVVADIGNFPHCLAQTPEGIASGQRYQKYSTNSLSRTPPFSQWGAPQLLTPKSAQEYIKFAQQRNKKSSFKIDGEAVRVSECSNFAYHSAGVLLDDPQIRTQYDVAVIGSMHSNGRYLHNITLLVPKGSRLPQPPQQLTAEVFPIGTLIVDPWAVGMGHPPEQALAIPKEQFAYNRSLFPATVNYQSALDESLTSTRTGQLTPYTGTPSRTGRQEVRAESQFPGTRRPVSATIPGNFAAYHELWRNAFQEIMNDPRHQLHRNDVEYKKIHAIRTVLDDYTKGGNTWWAKFRRIFTFHWNRHHVKVVDDIVKEIDAGNYTTSRALVDRLDNLAISLGSKLNPKGTLKEQIGFIKIQEQNPVEEIENLSRPNLT”, for which the “soluble on expression in E. coli” value was “not soluble”.

“STTALCRMNMILHNSATADIAKGGSSTLSNPLFTTENGMLKTFDYVVANPPFS”: the “soluble on expression in E. coli” value is “not soluble”.

As to “MGSDKIHHHHHHMGFRNVIITQHSKLSYSNNAMIVQNKDGINQIPLVDMDILLISTTQAVITSALVSKLAESGIKVIFTDNKNEPVTETVNYYPNNRSLDTYLQQYEWNDHVKEILWTKIVRSKIINQIKVLKNYQIDCQDLKIELDKLEINDMTNREAVVARKYFEKLFGNKYSRKDFTPMNAALNYGYSILLSAVNKEIVSAGYVTYLGIHHQSQENMFNFGSDLMESFRPVVDYWLADKNFLEFTPDIKYGLVDLLNLEIKYNKKQMLLKNAITKYVRDVIEYLNQETVEFDMEVEFTNEVPNNAINDNI”, the “soluble on expression in E. coli” value was “not soluble”.

Turning to “MGSDKIHHHHHHMKETSRKSGASAAKGKVIITCAVTGAIHTPTMSPYLPITPDQIASEAIAAAQAGAAILHLHARDPETGKPDQTPEAFARFLPRVKQGTNAAINITTGGSPYMKVEERVRPAAQFKPEVASLNMGSINFGLYHLADKYETFKFDWEKPHLEATRDLVFRNSFKDIEYILATCYDNGTRFEFECYDIAHLYNLSHFADRGLVKPPFFVQSVFGLLGGIGTHPEDVAHMKRTADRLFGDQFRWSVLGAGASQLRIAAQSAALGGNIRVGLEDSLWAGKGKLAKSNAEQVVLARKIIEGLGMEVATPDEAREILSLKGGDKVAF”, the “soluble on expression in E. coli” value is “not soluble”.

As to “MKNNKDEKIRISIINGFLGSGKTTLLTHYISELLKNDEKIKIIMNEFGTFDIDSNSISNEIEVHSLINGCVCCDLKQELVYELKAIALKGDVNHVIIETTGIAHPLELLVACQDPQIVNFFEKPIIYGVLDATRFLERHQYTENTVSLMEDQLKLSDMIIINKIDLITDDRLERIDKQLGMICASIPTYKTTYGKVSLEELDLTVKDREISSHHHHHHGIKSMTYTFTGPIDRQLFYQFIMKLPESVLRLKGYVSFRDQPNAIYEFQYAYGLPDYGIIGMQLPLTIVIIGETLDTNHIRNQLDMLQFT”, the “soluble on expression in E. coli” value is given as “not soluble”.

As to “MAGDPMTEQDIYKLLADGERVTLECKKAQNGVPNSLWETYSAFANTNGGILLLGVYENVAEKDSLMRFTITGVEDADKIRKDLWNTINSREKVNVNLLHDEDVQTISVNGKEVIAINVPRADYNLRPVYINNNLMRGTYRRNHEGDYHCTEQMIKMMVRDAYEDGNDRMFLEYYTMDDIDIPTLEGYRVMFKTNNPEHIWNSLDHKEFLMQLGGYVVNRKDGTEGLTIAGLLMFGKGLPVRERFDYLRMDYIDKSNLIGDQRYSDRLTYDGTWENNLFNFIRMVVPRLTRDIPRPFQMDGIIRKDDTPQHKAVREAFTNMIIHADLMLNGLLRVEKYDDRFVLSNPGLLKLPVEQIYAGGESKARNQRMQHMLRMIGYGENLGSGFPLILSAWNEKHWLKPELVEQPELMQVKLILHIENRVYVTKDVTKDVTKELTERQQIILEFMQADGTITISEMSQKTNVTERTIKRDIESLTEKGILSREGGRKEGRWVIRKILEHHHHHH”, the “soluble on expression in E. coli” value is on record as “soluble”.

As to “MKSPQAQQILDQARRLLYEKAMVKINGQYVGTVAAIPQSDHHDLNYTEVFIRDNVPVMIFLLLQNETEIVQNFLEICLTLQSKGFPTYGIFPTSFVETENHELKADYGQRAIGRVCSVDASLWWPILAYYYVQRTGNEAWARQTHVQLGLQKFLNLILHPVFRDAPTLFVPDGAFMIDRPMDVWGAPLEIQTLLYGALKSAAGLLLIDLKAKGYCSNKDHPFDSFTMEQSHQFNLSVDWLKKLRTYLLKHYWINCNIVQALRRRPTEQYGEEASNEHNVHTETIPNWLQDWLGDRGGYLIGNIRTGRPDFRFFSLGNCLGAIFDVTSLAQQRSFFRLVLNNQRELCAQMPLRICHPPLKDDDWRSKTGFDRKNLPWCYHNAGHWPCLFWFLVVAVLRHSCHSNYGTVEYAEMGNLIRNNYEVLLRRLPKHKWAEYFDGPTGFWVGQQSRSYQTWTIVGLLLVHHFTEVNPDDALMFDLPSLKSLHQALHLEHHHHHH”, the “soluble on expression in E. coli” value is listed as “not soluble”.
